Earlier results on three substances are cited in paper PMC10130511.

Like-named read-outs stand apart in the source and are kept apart here.

Data set [1] has as its target IP3R (UniProt P29994).
In data set [2] the target is IP3R (UniProt P29994). This is another data set of the same source.
Data set [3] concerns the target IP3R (UniProt P29994). The source holds these as a separate data set.

Chain of UniProt P29994 (P29994 whole entry): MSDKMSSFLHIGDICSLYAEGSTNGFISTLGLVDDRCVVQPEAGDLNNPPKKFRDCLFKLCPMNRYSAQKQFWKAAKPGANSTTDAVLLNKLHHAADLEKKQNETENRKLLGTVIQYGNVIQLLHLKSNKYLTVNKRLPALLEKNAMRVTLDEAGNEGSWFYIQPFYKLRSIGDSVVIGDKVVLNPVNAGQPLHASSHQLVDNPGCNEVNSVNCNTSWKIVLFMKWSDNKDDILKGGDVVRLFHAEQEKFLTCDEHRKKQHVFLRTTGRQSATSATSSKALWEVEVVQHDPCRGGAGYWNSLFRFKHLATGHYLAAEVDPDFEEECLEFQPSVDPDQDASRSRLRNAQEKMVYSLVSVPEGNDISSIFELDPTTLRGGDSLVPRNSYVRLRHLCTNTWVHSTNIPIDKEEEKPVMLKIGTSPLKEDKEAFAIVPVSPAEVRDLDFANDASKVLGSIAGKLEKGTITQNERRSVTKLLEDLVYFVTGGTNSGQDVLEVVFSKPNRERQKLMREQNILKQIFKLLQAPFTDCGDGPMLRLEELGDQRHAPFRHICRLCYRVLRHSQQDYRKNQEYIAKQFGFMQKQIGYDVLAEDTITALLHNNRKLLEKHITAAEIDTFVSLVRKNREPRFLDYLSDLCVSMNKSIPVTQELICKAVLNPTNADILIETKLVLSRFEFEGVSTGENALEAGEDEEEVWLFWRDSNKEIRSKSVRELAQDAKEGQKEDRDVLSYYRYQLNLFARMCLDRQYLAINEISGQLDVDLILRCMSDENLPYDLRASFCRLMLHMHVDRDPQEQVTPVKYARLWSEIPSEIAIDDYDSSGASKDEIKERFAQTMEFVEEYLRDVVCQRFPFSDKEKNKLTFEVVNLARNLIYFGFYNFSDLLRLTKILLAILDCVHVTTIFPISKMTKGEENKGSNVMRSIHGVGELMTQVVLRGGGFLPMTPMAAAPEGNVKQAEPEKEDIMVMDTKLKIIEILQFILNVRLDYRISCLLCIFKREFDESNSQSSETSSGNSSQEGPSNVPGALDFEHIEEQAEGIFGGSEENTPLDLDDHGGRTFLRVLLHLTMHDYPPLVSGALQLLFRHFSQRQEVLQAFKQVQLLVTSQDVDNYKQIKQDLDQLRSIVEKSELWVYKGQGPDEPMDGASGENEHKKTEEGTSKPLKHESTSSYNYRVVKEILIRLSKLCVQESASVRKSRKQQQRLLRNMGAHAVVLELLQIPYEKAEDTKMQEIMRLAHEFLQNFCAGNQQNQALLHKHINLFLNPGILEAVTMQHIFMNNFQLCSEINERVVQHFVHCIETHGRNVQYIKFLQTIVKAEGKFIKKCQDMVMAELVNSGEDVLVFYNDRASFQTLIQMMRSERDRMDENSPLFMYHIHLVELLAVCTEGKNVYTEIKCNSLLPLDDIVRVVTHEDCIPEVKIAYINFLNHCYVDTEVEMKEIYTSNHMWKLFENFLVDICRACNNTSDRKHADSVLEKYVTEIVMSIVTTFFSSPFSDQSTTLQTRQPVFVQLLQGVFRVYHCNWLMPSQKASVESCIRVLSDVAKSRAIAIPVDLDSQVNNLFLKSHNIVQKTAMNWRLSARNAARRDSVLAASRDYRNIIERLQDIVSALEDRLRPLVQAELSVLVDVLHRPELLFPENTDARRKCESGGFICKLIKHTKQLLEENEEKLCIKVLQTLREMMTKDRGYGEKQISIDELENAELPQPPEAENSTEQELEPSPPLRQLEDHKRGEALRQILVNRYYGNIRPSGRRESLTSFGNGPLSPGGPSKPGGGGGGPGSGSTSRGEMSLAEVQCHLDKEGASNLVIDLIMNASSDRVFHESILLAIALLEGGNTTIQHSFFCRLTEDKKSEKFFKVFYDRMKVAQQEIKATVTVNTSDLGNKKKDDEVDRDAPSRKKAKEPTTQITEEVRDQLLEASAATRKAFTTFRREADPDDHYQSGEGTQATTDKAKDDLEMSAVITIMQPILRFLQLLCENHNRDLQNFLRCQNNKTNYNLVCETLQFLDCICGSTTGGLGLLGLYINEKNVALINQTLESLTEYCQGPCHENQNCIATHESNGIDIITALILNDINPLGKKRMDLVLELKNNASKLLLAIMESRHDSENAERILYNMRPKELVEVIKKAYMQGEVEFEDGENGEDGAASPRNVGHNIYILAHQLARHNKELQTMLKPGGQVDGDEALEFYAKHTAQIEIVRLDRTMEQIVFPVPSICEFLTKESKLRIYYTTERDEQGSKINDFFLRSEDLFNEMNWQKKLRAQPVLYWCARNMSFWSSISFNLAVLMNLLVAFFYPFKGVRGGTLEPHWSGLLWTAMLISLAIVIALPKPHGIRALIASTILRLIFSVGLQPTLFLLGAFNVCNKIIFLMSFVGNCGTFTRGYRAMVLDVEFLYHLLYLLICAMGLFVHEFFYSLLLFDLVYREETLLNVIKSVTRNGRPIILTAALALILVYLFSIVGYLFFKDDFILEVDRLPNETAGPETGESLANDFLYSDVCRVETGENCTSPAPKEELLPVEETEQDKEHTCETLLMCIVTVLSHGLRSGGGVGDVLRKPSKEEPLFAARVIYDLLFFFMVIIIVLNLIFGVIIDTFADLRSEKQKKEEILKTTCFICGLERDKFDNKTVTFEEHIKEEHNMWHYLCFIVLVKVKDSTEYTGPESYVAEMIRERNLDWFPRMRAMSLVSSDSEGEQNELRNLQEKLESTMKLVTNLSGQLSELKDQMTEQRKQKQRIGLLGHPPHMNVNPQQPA

As for Bok (from UniProt Q9UMX3), in the data set with IP3R [1], the dissociation constant Kd was 65 nM.

As to Bcl-xL (from UniProt Q07817), the Kd in the data set with IP3R [2] is 700 nM.

On to Bcl-2 (from UniProt P10415), for which the Kd with IP3R [3] was 1000 nM.

Broadly, the Kd is the constant that tells how readily two partners part at equilibrium.
